Where no end group is shown, it is not given here.

Assay [1] addresses T1, MBP-RAMP1 ECD-(GS)5-CLR ECD-H6 fusion protein (human, UniProt O60894 24-111; Q16602 29-144).
T1 construct: range 24-111;range 29-144; Tethered ECD fusion made in E. coli; used in the FP assay at 15 nM; also called MBP-hRAMP1.24-111-(Gly-Ser)5-hCLR.29-144-H6
In words: ratio of FP KI values at the two ECD complexes. Here is the method:
(§1) Fluorescence polarization peptide binding assay. […] The reactions (50 μL) were incubated for 2 hours at room temperature to reach equilibrium, and the anisotropy was measured in black half-area 96-well plates using a BMG LABTECH's POLARstar® Omega plate reader (Ortenberg, Germany). The reaction buffer was 50 mM HEPES, pH 7.5, 150 mM NaCl, 0.5 mg/ml fatty acid-free BSA, 0.5 mM EDTA, 0.5 mM maltose. KI values were calculated using nonlinear regression fitting of the competition curves to the exact analytical equations of Roehrl et al. (Biochemistry (2004) 43:16056-66) using GraphPad Prism 5.0 (GraphPad Software, San Diego Calif.).
(§2) The large size difference between the MBP-RAMP ECD-CLR ECD fusion proteins (˜65 kDa) and the probe (˜2.5 kDa) ensures a significant anisotropy difference between bound and free states of the probe. […] Kd values for the probe at each of the tethered ECD fusion proteins were determined in equilibrium saturation binding experiments (data not shown), and KI values were determined for unlabeled peptides in equilibrium competition experiments (Table 1; FIGS. 2-5). The data were analyzed according to exact analytical equations using non-linear regression curve fitting in GraphPad Prism 5.0 (GraphPad Software) via user-defined equations.

Assay [2] concerns the target T1, MBP-RAMP1 ECD-(GS)5-CLR ECD-H6 fusion …. In words: FP competition vs FITC-AM W/W probe, purified ECD fusion. The protocol:
as §1, §2

For assay [3], the target named is T2, MBP-RAMP1 ECD-(GS)5-CTR ECD-H6 fusion protein (human, UniProt O60894 27-118; P30988 34-141, limits assumed).
T2 construct: extracellular domain; CTR-based proteins were produced in HEK293T cells (N-glycosylated); also called RAMP1-CTR ECD; RAMP1-CTR
Kind of assay: AlphaLISA competition vs Biotin-AC413 probe, purified AMY1 ECD fusion. The protocol: A single representative experiment conducted with duplicate samples is shown. […] The reactions were incubated for 5 hours at room temperature to reach equilibrium, and the luminescence was measured in white 384-well plates using a BMG LABTECH's POLARstar® Omega plate reader (Ortenberg, Germany). The reaction buffer was 50 mM MOPS, pH 7.4, 150 mM NaCl, 7 mg/ml fatty acid-free BSA and the streptavidin-coated donor beads and MBP-antibody coated acceptor beads were at 15 μg/ml each. IC₅₀ values were calculated using nonlinear regression fitting of the competition curves to a three-parameter, one-site competitive binding equation in GraphPad Prism 5.0 (GraphPad Software, San Diego Calif.).

Assay [4] addresses T1, MBP-RAMP1 ECD-(GS)5-CLR ECD-H6 fusion …. Kind of assay: FP (anisotropy) competition: displaces FITC-Ahx-AM(37-52)NH2[S45W,Q50W] probe (7 nM) from MBP-RAMP1 ECD-(GS)5-CLR ECD-H6 (15 nM) [A-C) panel C]. The protocol: as §1
as §1, with “Single representative experiments conducted with duplicate samples are shown.” for “Fluorescence polarization peptide binding assay.”, “reactions” for “reactions (50 μL)”

The target of assay [5] is MBP-RAMP2 ECD [L106R]-(GS)5-CLR ECD-H6 fusion protein (human) (UniProt O60895). Kind of assay: FP competition vs FITC-AM W/W probe, purified ECD fusion.
The target is the same in assay [6]. Kind of assay: AlphaLISA competition: displaces Biotin-AM probe (25 nM) from the RAMP2-CLR ECD fusion protein (5 nM). In general terms: Bead proximity is the source of the signal in Alpha formats.
Assay [7] has the same target. Kind of assay: AlphaLISA or AlphaScreen competition assays.
For assay [8], the target named is T1, MBP-RAMP1 ECD-(GS)5-CLR ECD-H6 fusion …. In words: FP (anisotropy) competition: displaces FITC-Ahx-AM(37-52)NH2[S45W,Q50W] probe (7 nM) from MBP-RAMP1 ECD-(GS)5-CLR ECD-H6 (15 nM) [I-J) lower graph]. Here is the method:
as §1

The target of assay [9] is MBP-RAMP2 ECD [L106R]-(GS)5-CLR ECD-H6 fusion protein (human) (UniProt O60895). Kind of assay: FP (anisotropy) competition: displaces FITC-Ahx-AM(37-52)NH2[S45W,Q50W] probe (7 nM) from MBP-RAMP2 ECD[L106R]-(GS)5-CLR ECD-H6 (110 nM) [I-K) panel K].
Assay [10] shares this target. Kind of assay: AlphaLISA competition vs Biotin-AM probe.
Assay [11] addresses T1, MBP-RAMP1 ECD-(GS)5-CLR ECD-H6 fusion …. In words: FP (anisotropy) competition: displaces FITC-Ahx-AM(37-52)NH2[S45W,Q50W] probe (7 nM) from MBP-RAMP1 ECD-(GS)5-CLR ECD-H6 (15 nM) [A-C) panel B]. Here is the method: as §1
In assay [12] the target is MBP-RAMP2 ECD [L106R]-(GS)5-CLR ECD-H6 fusion protein (human) (UniProt O60895). In words: FP (anisotropy) competition: displaces FITC-Ahx-AM(37-52)NH2[S45W,Q50W] probe (7 nM) from MBP-RAMP2 ECD[L106R]-(GS)5-CLR ECD-H6 (110 nM) [A-C) panel B].
For assay [13], the target named is T1, MBP-RAMP1 ECD-(GS)5-CLR ECD-H6 fusion …. Kind of assay: AlphaLISA competition: displaces Biotin-CGRP probe (50 nM) from the RAMP1-CLR ECD fusion protein (5 nM). Here is the method: The probes were as described in Moad and Pioszak (Protein Sci. (2013) 22:1775-85). The reactions were incubated for 5 hours at room temperature to reach equilibrium, and the luminescence was measured in white 384-well plates using a BMG LABTECH's POLARstar® Omega plate reader (Ortenberg, Germany). The reaction buffer was 50 mM MOPS, pH 7.4, 150 mM NaCl, 7 mg/ml fatty acid-free BSA, and the streptavidin-coated donor beads and MBP-antibody coated acceptor beads were at 15 μg/ml each. IC₅₀ values were calculated using nonlinear regression fitting of the competition curves to a three-parameter, one-site competitive binding equation in GraphPad Prism 5.0 (GraphPad Software, San Diego Calif.).

In assay [14] the target is MBP-RAMP2 ECD [L106R]-(GS)5-CLR ECD-H6 fusion protein (human) (UniProt O60895). In words: FP (anisotropy) competition: displaces FITC-Ahx-AM(37-52)NH2[S45W,Q50W] probe (7 nM) from MBP-RAMP2 ECD[L106R]-(GS)5-CLR ECD-H6 (110 nM) [A-C) panel A].
In assay [15] the target is T1, MBP-RAMP1 ECD-(GS)5-CLR ECD-H6 fusion …. Kind of assay: FP (anisotropy) competition: displaces FITC-Ahx-AM(37-52)NH2[S45W,Q50W] probe (7 nM) from MBP-RAMP1 ECD-(GS)5-CLR ECD-H6 (15 nM) [D-E) panel D]. Here is the method:
as §1

Assay [16] has the same target. In words: FP (anisotropy) competition: displaces FITC-Ahx-AM(37-52)NH2[S45W,Q50W] probe (7 nM) from MBP-RAMP1 ECD-(GS)5-CLR ECD-H6 (15 nM) [F-H) panel F]. The protocol: as §1
The target in assay [17] is MBP-RAMP2 ECD [L106R]-(GS)5-CLR ECD-H6 fusion protein (human) (UniProt O60895). Kind of assay: ratio of FP KI values at the two ECD complexes.
For assay [18] the target is unchanged. Kind of assay: FP (anisotropy) competition: displaces FITC-Ahx-AM(37-52)NH2[S45W,Q50W] probe (7 nM) from MBP-RAMP2 ECD[L106R]-(GS)5-CLR ECD-H6 (110 nM) [G-H) panel G].

MBP-RAMP2 ECD [L106R]-(GS)5-CLR ECD-H6 fusion protein (human), sequence (O60895 other isoform, or with tags, fused parts or gaps L106R L106R): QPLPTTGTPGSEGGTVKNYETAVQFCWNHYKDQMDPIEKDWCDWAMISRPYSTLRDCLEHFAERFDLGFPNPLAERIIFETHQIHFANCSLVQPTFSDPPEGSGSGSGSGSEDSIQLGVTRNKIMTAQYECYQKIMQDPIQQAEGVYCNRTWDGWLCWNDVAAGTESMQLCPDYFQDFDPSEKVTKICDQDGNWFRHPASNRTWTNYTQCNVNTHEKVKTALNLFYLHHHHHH
T1 sequence (O60894 other isoform, or with tags, fused parts or gaps limits assumed, form in doubt): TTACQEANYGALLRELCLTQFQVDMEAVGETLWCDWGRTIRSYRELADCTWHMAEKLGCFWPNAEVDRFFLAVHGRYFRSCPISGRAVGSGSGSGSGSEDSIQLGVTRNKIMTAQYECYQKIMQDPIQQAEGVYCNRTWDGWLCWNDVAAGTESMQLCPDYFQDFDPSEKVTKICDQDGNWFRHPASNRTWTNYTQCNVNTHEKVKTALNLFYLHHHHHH
T2 sequence (O60894 other isoform, or with tags, fused parts or gaps limits assumed): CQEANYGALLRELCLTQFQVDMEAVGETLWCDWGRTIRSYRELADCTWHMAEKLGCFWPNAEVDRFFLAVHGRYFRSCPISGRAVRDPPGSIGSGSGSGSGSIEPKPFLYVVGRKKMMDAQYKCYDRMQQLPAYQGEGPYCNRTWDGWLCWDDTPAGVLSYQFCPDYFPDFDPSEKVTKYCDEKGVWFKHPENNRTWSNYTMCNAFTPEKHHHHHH

By Ki is commonly meant the dissociation constant of the complex between target and ligand, obtained from inhibition or displacement. For orientation: IC50 means the midpoint of a concentration-inhibition curve. Low readings indicate greater potency, high ones weaker potency. Regarding FVPTDVGPWSF-NH2 [CGRP(27-37)NH2 [N31D, S34P, K35W, A36S]], the “Receptor Selectivity (fold, over RAMP2-CLR ECD)” value in [1] stood at 1860 fold. Besides, in assay [2], the Ki was 1.32 nM and the pKI is 8.88. Also, the IC50 in assay [3] worked out at 260 nM. Moreover, in assay [4], the “IC50 (read off the curve)” value is ~10 nM. For the same molecule, in assay [5], the Ki is 2450 nM and the pKI is 5.61.

DKDNVAPRSKISPQGY-NH2 [AM(37-52)NH2]: the results for the IC50 in assay [6] and in assay [7] were 5000 nM and 5000 to 15000 nM, respectively. Besides, in assay [5], the Ki was 20400 nM. In addition, the pKI in assay [5] was found to be 4.69.

Consider DKWNVAPRSKISPWGY-NH2 (also called AM(37-52)NH2 [D39W, Q50W]) [AM(37-52) D39W/Q50W], for which the “IC50 (read off the curve)” value in assay [8] was ~400 nM; in [9] it was 300 nM.

In the case of DKDNVAPRSKISPWGY-NH2 [AM(37-52)NH2 [Q50W]], the results for the IC50 in [6] and in assay [13] were 44 nM and 400 nM, respectively. The fold increase in affinity (over AM(37-52)NH2, implied) in assay [10] worked out at 100 fold. The Ki in assay [2] was found to be 501 nM; in assay [5] it was 316 nM. Further, the pKI in assay [2] turned out to be 6.3; in assay [5], 6.5. Further, the results for the “IC50 (read off the curve)” value in [11] and in [12] were ~1000 nM and 600 nM, respectively.

For the molecule DKDNVAPRWKISPWGY-NH2 (also called S45W/Q50W double mutant) [AM(37-52)NH2 [S45W, Q50W]], the IC50 stood at 20 nM in assay [6] and 17 nM in assay [13]. In addition, the inhibition constant Ki in assay [2] was 44.7 nM; in assay [5] it was 81.3 nM. For the same molecule, the pKI in assay [2] is 7.35; in [5], 7.09. The “IC50 (read off the curve)” value in assay [11] was ~100 nM; in assay [14], 200 nM.

Take DKDNVAPRWLISPWGF-NH2 [AM(37-52)NH2 [S45W, K46L, Q50W, Y52F]]: the “Receptor Selectivity (fold, over RAMP2-CLR ECD)” value in assay [1] stood at 2130 fold. For the same molecule, the “IC50 (read off the curve)” value in [15] is ~20 nM. For the same molecule, in assay [2], the Ki was found to be 1.91 nM and the pKI came to 8.72. In addition, the IC50 in assay [3] came out at 16000 nM. In [5], this molecule displayed a Ki of 4070 nM and a pKI of 5.39.

Regarding DKDNVAPRTLISPWGY-NH2 [AM(37-52)NH2[S45T, K46L, Q50W]], the “IC50 (read off the curve)” value in assay [16] was ~200 nM. Further, the “Receptor Selectivity (fold, over RAMP2-CLR ECD)” value in assay [1] was found to be 24 fold. Moreover, the Ki in [2] came out at 65.6 nM; in [5], 1570 nM. For the same molecule, the pKI turned out to be 7.18 in [2] and 5.8 in assay [5].

As to DKDNVAPRSKISPFGY-NH2 [AM(37-52)NH2 [Q50F]], the Receptor Selectivity (fold, over RAMP1-CLR ECD) in assay [17] was 5 fold. In assay [2], this molecule showed a Ki of 10500 nM and a pKI of 4.98. The same molecule had an IC50 (read off the curve) in assay [12] of 4000 nM. In assay [5], this molecule had a Ki of 2140 nM and a pKI of 5.67.

Turning to DKDNVAPRWLIGPWGF-NH2 [AM(37-52)NH2 [S45W, K46L, S48G, Q50W, Y52F]], the IC50 (read off the curve) in [18] was 200 nM. In addition, in assay [5], the Ki came to 1250 nM and the pKI came out at 5.9.

The values are drawn from patent US20180141989A1 (BOARD OF REGENTS OF THE UNIVERSITY OF OKLAHOMA, published 2018).
